The values below come from paper PMC12343972 (Nature Communications, 2025).

In one data set the target is T1, Rad50-K1181A K1183A (Saccharomyces cerevisiae, UniProt P12753 1-1312, K1181A;K1183A).
T1 sequence: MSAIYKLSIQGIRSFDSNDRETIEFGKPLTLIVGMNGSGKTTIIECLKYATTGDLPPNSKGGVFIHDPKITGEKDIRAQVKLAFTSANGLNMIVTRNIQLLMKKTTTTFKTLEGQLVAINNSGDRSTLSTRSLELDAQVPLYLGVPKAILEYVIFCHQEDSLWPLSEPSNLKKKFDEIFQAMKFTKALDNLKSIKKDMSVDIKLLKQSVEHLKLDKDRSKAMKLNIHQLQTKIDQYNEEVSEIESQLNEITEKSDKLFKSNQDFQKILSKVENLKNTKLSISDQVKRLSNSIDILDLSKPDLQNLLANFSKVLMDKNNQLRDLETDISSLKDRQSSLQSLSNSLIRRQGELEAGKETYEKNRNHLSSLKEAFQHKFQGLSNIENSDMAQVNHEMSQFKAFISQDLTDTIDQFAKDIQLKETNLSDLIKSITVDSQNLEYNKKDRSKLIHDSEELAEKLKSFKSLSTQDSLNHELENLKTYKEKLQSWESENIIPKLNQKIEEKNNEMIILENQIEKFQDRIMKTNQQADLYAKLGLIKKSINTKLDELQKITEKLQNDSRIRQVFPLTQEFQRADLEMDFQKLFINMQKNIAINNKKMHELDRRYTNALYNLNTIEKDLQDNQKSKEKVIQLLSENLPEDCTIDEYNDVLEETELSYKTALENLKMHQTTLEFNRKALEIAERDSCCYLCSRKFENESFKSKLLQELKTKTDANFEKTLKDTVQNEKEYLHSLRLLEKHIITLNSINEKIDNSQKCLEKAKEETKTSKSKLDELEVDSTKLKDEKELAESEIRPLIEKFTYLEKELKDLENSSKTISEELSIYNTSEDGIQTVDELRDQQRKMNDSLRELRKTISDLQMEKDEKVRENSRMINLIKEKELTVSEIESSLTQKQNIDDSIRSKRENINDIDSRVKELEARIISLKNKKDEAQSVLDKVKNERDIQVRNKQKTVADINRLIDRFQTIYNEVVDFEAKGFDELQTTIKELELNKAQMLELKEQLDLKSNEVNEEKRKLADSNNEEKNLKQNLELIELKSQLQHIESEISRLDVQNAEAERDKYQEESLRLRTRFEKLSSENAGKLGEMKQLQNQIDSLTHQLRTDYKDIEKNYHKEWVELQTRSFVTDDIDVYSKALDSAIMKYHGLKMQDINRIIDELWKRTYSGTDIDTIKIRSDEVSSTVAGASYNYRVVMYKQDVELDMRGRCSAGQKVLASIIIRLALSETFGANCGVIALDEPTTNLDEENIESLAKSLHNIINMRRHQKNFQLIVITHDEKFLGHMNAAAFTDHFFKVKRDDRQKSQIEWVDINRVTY
Put plainly: EMSA. (Mobility shift assays separate free from complexed probe on a gel.)

The target in another data set is T2, Rad50-R131A (Saccharomyces cerevisiae, UniProt P12753 1-1312, R131A).
T2 sequence: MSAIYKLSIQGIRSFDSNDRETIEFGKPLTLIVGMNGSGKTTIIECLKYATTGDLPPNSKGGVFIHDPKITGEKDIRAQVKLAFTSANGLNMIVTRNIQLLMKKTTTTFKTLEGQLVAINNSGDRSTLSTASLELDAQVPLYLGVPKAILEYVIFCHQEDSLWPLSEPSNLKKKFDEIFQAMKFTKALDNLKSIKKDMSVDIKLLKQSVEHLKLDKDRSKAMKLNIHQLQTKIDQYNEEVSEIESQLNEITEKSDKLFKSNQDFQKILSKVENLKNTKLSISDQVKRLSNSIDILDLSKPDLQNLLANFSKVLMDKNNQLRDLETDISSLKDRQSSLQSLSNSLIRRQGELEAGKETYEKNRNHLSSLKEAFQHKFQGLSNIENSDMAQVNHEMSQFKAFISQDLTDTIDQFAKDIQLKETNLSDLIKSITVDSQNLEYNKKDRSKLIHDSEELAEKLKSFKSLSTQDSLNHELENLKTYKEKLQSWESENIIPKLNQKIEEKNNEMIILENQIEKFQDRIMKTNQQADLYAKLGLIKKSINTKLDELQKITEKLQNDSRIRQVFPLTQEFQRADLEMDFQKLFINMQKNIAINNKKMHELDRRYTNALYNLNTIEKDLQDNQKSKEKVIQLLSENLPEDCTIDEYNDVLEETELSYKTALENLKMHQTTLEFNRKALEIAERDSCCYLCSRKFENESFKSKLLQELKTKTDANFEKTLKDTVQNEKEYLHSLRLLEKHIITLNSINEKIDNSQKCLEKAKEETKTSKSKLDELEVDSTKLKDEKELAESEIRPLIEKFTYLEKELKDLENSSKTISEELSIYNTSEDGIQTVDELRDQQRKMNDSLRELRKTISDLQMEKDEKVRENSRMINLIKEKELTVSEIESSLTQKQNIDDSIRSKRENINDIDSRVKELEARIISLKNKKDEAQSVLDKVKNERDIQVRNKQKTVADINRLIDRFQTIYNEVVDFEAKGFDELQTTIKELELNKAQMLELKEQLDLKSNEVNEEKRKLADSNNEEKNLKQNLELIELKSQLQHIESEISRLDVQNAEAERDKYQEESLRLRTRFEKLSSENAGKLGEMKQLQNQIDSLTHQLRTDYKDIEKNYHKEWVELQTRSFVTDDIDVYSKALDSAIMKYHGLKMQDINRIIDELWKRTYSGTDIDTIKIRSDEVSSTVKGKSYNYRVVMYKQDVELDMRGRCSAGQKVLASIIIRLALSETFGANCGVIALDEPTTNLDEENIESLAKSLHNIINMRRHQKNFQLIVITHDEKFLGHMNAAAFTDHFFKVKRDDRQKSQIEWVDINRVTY
Put plainly: EMSA.

B1: 83-mer dsDNA (EMSA) (dsDNA)
DNA 1: TTGATAAGAGGTCATTTTTGCGGATGGCTTAGAGCTTAATTGCTGAATCTGGTGCTGTAGCTCAACATGTTTTAAATATGCAA
DNA 2: TTGCATATTTAAAACATGTTGAGCTACAGCACCAGATTCAGCAATTAAGCTCTAAGCCATCCGCAAAAATGACCTCTTATCAA
As to B1, the binding result with Rad50-K1181A K1183A and with Rad50-R131A was “binds” each time.
